Experiment [1] concerns the target T1, C3G-derived synthetic peptide (Homo sapiens, UniProt Q13905).
T1 construct: made in house; host or cells: chemical synthesis on 4-methyl benzhydrylamine resin
Nature of the experiment: C3G-derived synthetic peptide affinity column binding with MALDI readout. The conditions noted are these: Gly-[COS]-βAla analogue unit; 19-member array, residues 146-165 of c-Crk SH3 domain (Example 3). The procedure: An affinity column carrying a synthetic C3G derived peptide was prepared by reaction of the cysteine side chain of Acetyl-CWAcp-[…].amide (SEQ NO ID NO 14) with an iodoacetylated agarose matrix. The linker Acetyl-CWAcp- was designed to combine a reactive sulfhydryl on the Cys sidechain with a spectroscopic tag in the Trp residue, and to introduce a flexible spacer region between the support and the peptide ligand in the form of ε-aminocaproic acid. The amount of peptide on the column, was determined as 5 μmol/mL of the swollen agarose matrix from the absorbance at 280 nm of the peptide solution before and after reaction with the column.
The column was then washed with 0.5 M NaCl buffer to remove nonspecific binding proteins from the column. Specifically bound protein analogues were then eluted with 1 M hydroxylamine bufffer. Amounts of eluted peptide were monitored by UV absorbance at 280 nm. This procedure was used for both the C3G peptide column and for the control column loaded with Ac-C-AcpYGGFL.amide. The hydroxylamine cleavage of the thioester bond results in the elution of peptide fragments corresponding to the proteins which were able to bind to the affinity column under these conditions. Specific binding was found only for the C3G peptide column.
The composition of the parent array of SH3 protein analogues, as well as the binding and non-binding fractions obtained from affinity chromatography was determined by chemical cleavage and MALDI MS. First, the parent array of folded protein analogues and the 0.5 M NaCl wash from the affinity chromatography of the array were cleaved separately with hydroxylamine. After a desalting step, MALDI mass spectra were obtained for the peptide fragments generated from the (parent) protein array, the salt wash (non-binding) and for the peptide fragments generated by the hydroxylamine elution of the specifically bound analogues (binding). Nine components were present in the array of protein analogues that was added to the C3G column as one mixture (FIG. 26A). […] Three protein analogues, however, were able to bind to the C3G peptide on the column and were eluted only after cleavage with hydroxylamine (FIG. 26C). One of the protein analogues can be identified in both the wash and elution spectra, indicating intermediate folding and/or binding properties for this analogue.
The C3G-derived synthetic peptide affinity column was prepared by adding 10 mg of lyophilized Ac-CWAcp[…].amide (SEQ ID NO 24) (Acp=ε-amino caproic acid) in 2 mL of 50 mM Tris, 5 mM EDTA, pH 8.0 buffer to Sulfolink™ resin (Pierce), equilibrated in the same buffer, for 1 hour while shaking. Unreacted iodoalkyl groups on the resin were then blocked by treatment with 50 mM cystamine, 50 mM Tris, 5 mM EDTA, pH 8.0 buffer for 1 hour. The loading of the column was determined by UV absorbance of the unreacted peptide solution and was approximately 5 μmol/mL. A similar procedure was used to attach the control peptide Ac-CAcpYGGFL.amide (SEQ ID NO 25) to the another batch of the Sulfolink™ support.
Lyophilized crude synthetic polypeptide corresponding to the cCrk SH3 domain (1.5 mg) and BSA (8.5 mg) were dissolved in 20 mM HEPES, 50 mM NaCl, pH 7.3 buffer (400 μL) and loaded on to a 1 mL C3G-derived synthetic peptide affinity column pre-equilibrated with the same buffer. The column was washed with 4 mL each of 50 mM NaCl, 100 mM NaCl, 200 mM NaCl, 300 mM NaCl, 400 mM NaCl, 500 mM NaCl and 1000 mM NaCl, 0.1 M phosphate, pH 7.0 buffer. The column was then washed with 1 M NH2OH 200 mM NH4CO3 pH 6.0 (4 mL) and finally eluted in 6M Gn.HCl 100 mM phosphate pH 6.5 (4 mL). Samples from all column fractions were monitored by absorbance at 280 nm and by HPLC.
Affinity chromatography of the arrays of protein analogues was carried out as follows. […]

Experiment [2] has as its target T2, C3G-peptide (Homo sapiens, UniProt Q13905).
T2 construct: made in house; host or cells: chemical synthesis
In words: Binding of Crk-N to the C3G-peptide in solution. Particulars: purified synthetic Crk-N. An excerpt: FIG. 3 illustrates preliminary iterative signature analysis data on residues 156-165 of the peptide Crk-N. a) Represents a comparison of the elution profiles obtained for the protein family using a C3G-peptide agarose column and a Leucine-Enkephalin agarose column (control). […] Single letters refer to amino acid pairs substituted with the -Gly-SCH2CH2CO— marker. d) Comparison of the MALDI MS spectra of the ammonium acetate wash and the entire 9 component synthetic Crk-N family cleaved with ammonium acetate. In both cases the N-terminal peptide ladder is observed at a much higher intensity than the equimolar C-terminal peptide ladder.
The folded protein was structurally characterized by NMR and crystallization (The folded protein was characterized by two dimensional NOESY 1H NMR spectroscopy. In addition, the synthetic protein solution used for NMR analysis spontaneously formed crystals upon storage at 4° C. These crystals diffracted to >2.3 Å allowing for the solution by molecular replacement. Refinement of the structure is in progress). The resulting synthetic protein domain was then assayed for its affinity for two different proline-rich peptides. […] This change in solvent exposure leads to an increase in the fluorescence intensity of the tryptophan sidechain which can be monitored as a function of increasing ligand concentration (Feng et al. Science 1994.266, 1241-1245). […]

Experiment [3] deals with T2, C3G-peptide. The conditions noted are these: recombinant Crk-N; read-out: KD for binding the C3G-peptide in solution; cited from earlier work.

Entries after “also recorded” stand apart in the source; their conditions may differ. Read-outs that look alike come from different tables or passages of the source.

The text below walks through data of patent publication US6495314B1, “Process for characterizing proteins” (The Scripps Research Institute, priority 1995, dated 2002).

Usually Kd stands for the free concentration of one partner at which half of the binding sites on the other are occupied at equilibrium, for simple one-to-one binding.

Turning to “N^146D^147: c-Crk SH3 domain analogue, dipeptide N146D147 replaced by Gly-[COS]-βAla”, in experiment [1], the “binding to C3G peptide affinity column, active (binding) pool” value (from here on “binding to C3G peptide affinity column”) is “displayed appreciable binding”.

Turning to “D^147E^148: c-Crk SH3 domain analogue, dipeptide D147E148 replaced by Gly-[COS]-βAla”, in experiment [1], the “binding to C3G peptide affinity column” value is on record as “displayed appreciable binding”.

For the molecule “E^148E^149: c-Crk SH3 domain analogue, dipeptide E148E149 replaced by Gly-[COS]-βAla”, the “binding to C3G peptide affinity column” value in experiment [1] is reported as “displayed appreciable binding”.

For `CC[C@H](C)[C@H](NC(=O)[C@H](CC(=O)O)NC(=O)CNC(=O)[C@H](CCCCN)NC(=O)[C@H](CCCCN)NC(=O)[C@H](Cc1ccccc1)NC(=O)[C@@H]1CCCN1C(=O)[C@H](CC(C)C)NC(=O)[C@H](CC(=O)O)NC(=O)[C@H](CCC(=O)O)NC(=O)[C@H](CCC(=O)O)NC(=O)[C@H](CC(=O)O)NC(=O)[C@H](CC(N)=O)NC(=O)CNC(=O)[C@H](CC(N)=O)NC(=O)[C@H](Cc1ccccc1)NC(=O)[C@H](CC(=O)O)NC(=O)[C@H](Cc1ccccc1)NC(=O)[C@H](CC(C)C)NC(=O)[C@H](C)NC(=O)[C@H](CCCNC(=N)N)NC(=O)[C@@H](NC(=O)[C@H](Cc1ccc(O)cc1)NC(=O)[C@H](CCC(=O)O)NC(=O)[C@H](C)N)C(C)C)C(=O)N[C@@H](CC(C)C)C(=O)N[C@@H](CCCNC(=N)N)C(=O)N[C@H](C(=O)N[C@@H](CCCNC(=N)N)C(=O)N[C@@H](CC(=O)O)C(=O)N[C@@H](CCCCN)C(=O)N1CCC[C@H]1C(=O)N[C@@H](CCC(=O)O)C(=O)N[C@@H](CCC(=O)O)C(=O)N[C@@H](CCC(N)=O)C(=O)N[C@@H](Cc1c[nH]c2ccccc12)C(=O)N[C@@H](Cc1c[nH]c2ccccc12)C(=O)N[C@@H](CC(N)=O)C(=O)N[C@@H](C)C(=O)N[C@@H](CCC(=O)O)C(=O)N[C@@H](CC(=O)O)C(=O)N[C@@H](CO)C(=O)N[C@@H](CCC(=O)O)C(=O)NCC(=O)N[C@@H](CCCCN)C(=O)N[C@@H](CCCNC(=N)N)C(=O)NCC(=O)N[C@@H](CCSC)C(=O)N[C@H](C(=O)N1CCC[C@H]1C(=O)N[C@H](C(=O)N1CCC[C@H]1C(=O)N[C@@H](Cc1ccc(O)cc1)C(=O)N[C@H](C(=O)N[C@@H](CCC(=O)O)C(=O)N[C@@H](CCCCN)C(=O)N[C@@H](Cc1ccc(O)cc1)C(=O)N[C@@H](CCCNC(=N)N)C(=O)O)C(C)C)C(C)C)[C@@H](C)CC)[C@@H](C)CC` [synthetic Crk-N], the Kd on C3G-peptide [2] was determined as 2300 nM.

On to “R^162D^163: c-Crk SH3 domain analogue, dipeptide R162D163 replaced by Gly-[COS]-βAla”, for which the “binding to C3G peptide affinity column” value in experiment [1] is listed as “displayed appreciable binding; also recorded: without significant loss of binding activity”.

“K^164P^165: c-Crk SH3 domain analogue, dipeptide K164P165 replaced by Gly-[COS]-βAla”: the “binding to C3G peptide affinity column” value in experiment [1] is listed as “displayed appreciable binding; also recorded: without significant loss of binding activity”.

For the molecule “L^151P^152: c-Crk SH3 domain analogue, dipeptide L151P152 replaced by Gly-[COS]-βAla”, the “binding to C3G peptide affinity column” value in experiment [1] is listed as “displayed appreciable binding”.

On to “I^161R^162: c-Crk SH3 domain analogue, dipeptide I161R162 replaced by Gly-[COS]-βAla”, for which, in experiment [1], the “binding to C3G peptide affinity column” value is recorded as “displayed appreciable binding; also recorded: without significant loss of binding activity”.

Regarding “D^163K^164: c-Crk SH3 domain analogue, dipeptide D163K164 replaced by Gly-[COS]-βAla”, the “binding to C3G peptide affinity column” value in experiment [1] is reported as “displayed appreciable binding; also recorded: without significant loss of binding activity”.

On to “recombinant Crk-N: recombinantly derived cCrk SH3 domain reported by Wu et al. Structure 1995”, for which, in the experiment with C3G-peptide [3], the Kd is 1900 nM.
